This experiment concerns the target T1, Bd0109 (Bdellovibrio bacteriovorus HD100, UniProt Q6MRH5 1-550).
T1 sequence (looked up): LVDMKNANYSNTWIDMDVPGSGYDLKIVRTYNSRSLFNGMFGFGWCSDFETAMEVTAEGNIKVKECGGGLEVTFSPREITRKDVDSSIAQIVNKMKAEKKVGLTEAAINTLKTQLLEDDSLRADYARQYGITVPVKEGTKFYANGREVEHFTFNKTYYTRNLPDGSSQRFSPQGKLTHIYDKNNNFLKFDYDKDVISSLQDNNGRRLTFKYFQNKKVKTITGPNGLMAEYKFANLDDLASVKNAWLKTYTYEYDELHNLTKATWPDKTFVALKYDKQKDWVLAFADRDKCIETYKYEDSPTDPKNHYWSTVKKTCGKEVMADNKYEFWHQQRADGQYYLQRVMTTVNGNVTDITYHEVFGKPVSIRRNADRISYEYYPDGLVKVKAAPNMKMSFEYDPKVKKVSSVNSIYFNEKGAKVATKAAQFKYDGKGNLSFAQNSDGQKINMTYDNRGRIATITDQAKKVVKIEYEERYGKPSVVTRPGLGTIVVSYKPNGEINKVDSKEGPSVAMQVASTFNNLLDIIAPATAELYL
Kind of experiment: ITC; 1.2 mM Bd0108 titrated into 0.02 mM Bd0109; VP-ITC, 25°C; 20 mM Tris pH 7.0 100 mM NaCl 1 mM β-ME; one-site model. Conditions: both partners purified. In general terms: ITC needs no label: the signal is the heat of the interaction.

These results are taken from article PMC4267844, “The Lifestyle Switch Protein Bd0108 of Bdellovibrio bacteriovorus Is an Intrinsically Disordered Protein” (PLoS ONE, 2014).

B1: Bd0108 (natural protein, Bdellovibrio bacteriovorus HD100)
chain: SHMADENANRPVNPGEDPNEAFRSTPFEATTSALGDCRECIAYRTGATTGKGSRRHDDTVSREIKGSSATPGGSEKAGTGRQ
modifications: disulfide between C56 and C59; 15N-labelled in the NMR titration
notes: tripeptide left on the mature N-terminus after thrombin cleavage of the His tag (cloning artefact); Bd0108 of Bdellovibrio bacteriovorus HD100, a 101 amino acid protein with an N-terminal Sec signal peptide; amino acids 23-101 cloned into pET28b; The assigned cloning artefacts (residues 21 and 22) in the titration point to this cytoplasmic construct and not to the PelB construct; also called …
By Kd is commonly meant the free concentration of one partner at which half of the binding sites on the other are occupied at equilibrium, for simple one-to-one binding. In general, stoichiometry N refers to the number of molecules, sites or subunits per partner or assembly. For the molecule B1, the equilibrium dissociation constant (Kd) was determined as 45 µM, the dH was -2.08 kcal/mol and the “stoichiometry N” value was 3.1.
